Measurements from publication PMC5963859.

Test system: GST-MBNL1 (GST-MBNL1Δ101 in Methods)
Test: EMSA
Settings: EMSA: 0.75 mM MgCl2, 50 mM Tris-HCl pH 7.0, 75 mM NaCl, 37.5 mM KCl, 5.25 mM DTT, 0.1 mg/ml BSA, 0.1 mg/ml bulk tRNA, RNasin 0.4 U/ul; 20 min on ice, gel at …

Sequence: CUG 10x RNA
- IC50: 100 nM
